We go through two molecules from patent US20210130453A1 (AstraZeneca / MedImmune, published 2021).

The chains are these.
T1: recombinant human gp130 (human, UniProt P40189 23-619, limits assumed)
T1 sequence (looked up): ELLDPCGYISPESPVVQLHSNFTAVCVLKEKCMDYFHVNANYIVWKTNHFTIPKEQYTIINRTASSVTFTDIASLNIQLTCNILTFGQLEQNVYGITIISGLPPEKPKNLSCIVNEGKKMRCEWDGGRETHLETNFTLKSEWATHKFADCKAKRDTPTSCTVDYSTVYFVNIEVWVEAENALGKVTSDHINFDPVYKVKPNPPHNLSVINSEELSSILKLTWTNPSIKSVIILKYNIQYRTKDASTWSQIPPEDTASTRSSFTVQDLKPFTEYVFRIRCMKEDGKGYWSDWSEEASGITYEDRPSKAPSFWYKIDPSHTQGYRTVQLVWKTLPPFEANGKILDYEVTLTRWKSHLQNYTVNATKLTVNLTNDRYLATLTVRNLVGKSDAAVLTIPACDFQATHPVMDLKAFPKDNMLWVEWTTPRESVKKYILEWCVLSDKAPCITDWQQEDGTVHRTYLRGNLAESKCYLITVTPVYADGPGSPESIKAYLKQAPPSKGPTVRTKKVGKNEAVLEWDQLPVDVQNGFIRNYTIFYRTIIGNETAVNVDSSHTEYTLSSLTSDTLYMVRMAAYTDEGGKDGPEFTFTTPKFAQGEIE

T2: recombinant human LIFR (human, UniProt P42702 45-833, limits assumed)
T2 construct: also called hLIFR
T2 sequence (looked up): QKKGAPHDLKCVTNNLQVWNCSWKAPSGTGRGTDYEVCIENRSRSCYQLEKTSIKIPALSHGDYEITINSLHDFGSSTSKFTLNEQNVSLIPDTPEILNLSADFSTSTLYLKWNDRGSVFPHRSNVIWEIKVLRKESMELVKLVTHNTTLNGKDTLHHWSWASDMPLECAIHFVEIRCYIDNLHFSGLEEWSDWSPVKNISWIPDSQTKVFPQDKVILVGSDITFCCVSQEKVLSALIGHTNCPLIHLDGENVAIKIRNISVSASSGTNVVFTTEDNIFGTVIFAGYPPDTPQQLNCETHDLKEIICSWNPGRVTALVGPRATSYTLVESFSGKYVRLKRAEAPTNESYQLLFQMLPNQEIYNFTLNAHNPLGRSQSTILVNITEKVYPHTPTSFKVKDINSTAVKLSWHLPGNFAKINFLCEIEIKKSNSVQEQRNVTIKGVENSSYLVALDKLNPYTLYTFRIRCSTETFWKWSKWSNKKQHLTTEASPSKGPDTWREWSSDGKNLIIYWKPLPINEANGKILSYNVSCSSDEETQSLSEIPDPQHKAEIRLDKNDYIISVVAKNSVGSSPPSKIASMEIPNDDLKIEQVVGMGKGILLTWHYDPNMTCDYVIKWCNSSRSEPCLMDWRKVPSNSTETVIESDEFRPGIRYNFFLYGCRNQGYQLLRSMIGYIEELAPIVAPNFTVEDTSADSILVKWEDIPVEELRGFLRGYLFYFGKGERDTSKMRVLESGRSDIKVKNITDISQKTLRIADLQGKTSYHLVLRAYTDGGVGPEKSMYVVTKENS

B1: human LIF (source not stated) (ligand)
chain: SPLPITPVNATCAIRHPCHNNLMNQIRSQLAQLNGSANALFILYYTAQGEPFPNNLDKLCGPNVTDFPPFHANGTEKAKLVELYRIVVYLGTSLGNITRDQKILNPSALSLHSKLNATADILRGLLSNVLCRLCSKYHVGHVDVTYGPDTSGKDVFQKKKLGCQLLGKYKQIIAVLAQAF
notes: also called hLIF; endogenous LIF of U-251 cells
B2: h5D8 (humanized 5D8, H2L2) (antibody, V domains shown)
VH: QVQLQESGGGLVKPGGSLRLSCAASGFTFSHAWMHWVRQAPGKGLEWVGQIKAKSDDYATYYAESVKGRFTISRDDSKNTLYLQMNSLKTEDTAVYYCTCWEWDLDFWGQGTMVTVSS
VL: DIVMTQTPLSSPVTLGQPASISCRSSQSLLDSDGHTYLNWLQQRPGQPPRLLIYSVSNLESGVPDRFSGSGAGTDFTLKISRVEAEDVGVYYCMQATHAPPYTFGQGTKLEIK
notes: Humanized by CDR grafting from rat 5D8; also called G (H2L2); H5D8-1 IgG

For one test, the target named is T1, recombinant human gp130. Kind of test: ELISA: LIF pre-incubated with B09, added to a plate coated with gp130, detected through the antibody with peroxidase anti-rat IgG. On the technique in general: An ELISA detects its analyte on a solid surface through an enzyme-linked reagent.
Test [1] has as its target B1. Kind of test: cell-based or functional assay.
The target of another test is T3, human IL-6 (E. coli) (human, UniProt P05231 30-212, limits assumed).
T3 construct: also called huIL-6 (E. coli)
T3 sequence (P05231 30-212 limits assumed): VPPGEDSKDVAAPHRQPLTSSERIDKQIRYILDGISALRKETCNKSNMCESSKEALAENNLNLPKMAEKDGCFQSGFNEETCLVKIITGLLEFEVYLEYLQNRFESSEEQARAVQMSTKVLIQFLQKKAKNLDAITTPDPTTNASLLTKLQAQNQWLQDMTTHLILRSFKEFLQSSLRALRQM
As to the kind of experiment: BLI (Octet), h5D8 amine-coupled to AR2G sensors, cytokine analyte; legend: ND = no binding. In general terms: Biolayer interferometry detects binding as a change in optical thickness at a sensor tip.

The next test has as its target T2, recombinant human LIFR. As to the kind of experiment: BLI (Octet RED96) control experiment, h5D8 on AHC sensors.

Protocol for human IL-6 (E. coli): 9.0.0.26 as follows: Amine Reactive 2ndGeneration Biosensors (AR2G) were hydrated for a minimum of 15 minutes in water. […] Kinetics experiments were then performed with the following Dip and Read steps at 30° C., 1000 rpm: vi) 60 seconds Baseline in 1× kinetics buffer; vii) 180 seconds Association of appropriate serial dilutions of a cytokine in 1× kinetics buffer; viii) 300 seconds Dissociation in 1× kinetics buffer; ix) Three Regeneration/Neutralization cycles alternating between 10 mM glycine pH 2.0 and 1× kinetics buffer respectively (5 seconds in each for 3 cycles). Following regeneration, the biosensors were reused for subsequent binding analyses.

Take B1: in the test with recombinant human gp130, the binding result is reported as “binds”.

Take B2: the “IC50 for biological inhibition (pSTAT3, U-251 cells, serum starved, endogenous LIF)” value in test [1] came out at 490 picomolar. Moreover, the binding result with human IL-6 (E. coli) and in the test with recombinant human LIFR was “no binding” each time.
